These results are taken from patent US20050222029A1 (MYRIAD GENETICS, published 2005).

B11: Tumor Suppressor (TSG101) 147-391 (other, human, UniProt Q99816 147-390, looked up)
chain: SASYPPYQATGPPNTSYMPGMPGGISPYPSGYPPNPSGYPGCPYPPGGPYPATTSSQYPSQPPVTTVGPSRDGTISEDTIRASLISAVSDKLRWRMKEEMDRAQAELNALKRTEEDLKKGHQKLEEMVTRLDQEVAEVDKNIELLKKKDEELSSALEKMENQSENNDIDEVIIPTAPLYKQILNLYAEENAIEDTIFYLGEALRRGVIDLDVFLKHVRLLSRKQFQLRALMQKARKTAGLSDLY
notes: bait (Gal4 DBD fusion)
B12: Tumor Suppressor (TSG101) 140-270 (other, human, UniProt Q99816 140-270, looked up)
chain: PVFSRPISASYPPYQATGPPNTSYMPGMPGGISPYPSGYPPNPSGYPGCPYPPGGPYPATTSSQYPSQPPVTTVGPSRDGTISEDTIRASLISAVSDKLRWRMKEEMDRAQAELNALKRTEEDLKKGHQKL
notes: range 140-270; bait (Gal4 DBD fusion)

Holding throughout (experiment): yeast two-hybrid
The target in assay [1] is T1, DNA helicase II, ATP-dependent, 70 kD subunit (KU70) 131-403 (table prints 1131-4404) (human, UniProt P12956 131-403).
T1 construct: prey (Gal4 AD-HA fusion)
T1 sequence (P12956 131-403 limits assumed): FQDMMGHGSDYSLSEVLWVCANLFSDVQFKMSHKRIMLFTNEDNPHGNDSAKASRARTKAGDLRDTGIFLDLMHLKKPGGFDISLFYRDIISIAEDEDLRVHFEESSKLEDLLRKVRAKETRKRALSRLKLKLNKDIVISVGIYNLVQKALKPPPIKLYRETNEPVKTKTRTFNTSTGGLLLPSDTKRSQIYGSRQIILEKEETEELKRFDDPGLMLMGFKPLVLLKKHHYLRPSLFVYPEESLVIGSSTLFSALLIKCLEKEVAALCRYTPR

Assay [2] addresses T2, v-akt murine thymoma viral oncogene homolog 2 (AKT2) 1-152 (human, UniProt P31751 1-152).
T2 construct: bait (Gal4 DBD fusion)
T2 sequence (looked up): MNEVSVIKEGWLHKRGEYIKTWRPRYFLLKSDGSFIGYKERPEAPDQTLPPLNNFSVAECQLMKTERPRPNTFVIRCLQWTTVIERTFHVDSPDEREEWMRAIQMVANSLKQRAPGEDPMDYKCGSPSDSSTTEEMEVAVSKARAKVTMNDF

For assay [3], the target named is T3, v-akt murine thymoma viral oncogene homolog 1 (AKT1) 1-150 (human, UniProt P31749 1-150).
T3 construct: range 1-150; bait (Gal4 DBD fusion)
T3 sequence (P31749 1-150 limits assumed): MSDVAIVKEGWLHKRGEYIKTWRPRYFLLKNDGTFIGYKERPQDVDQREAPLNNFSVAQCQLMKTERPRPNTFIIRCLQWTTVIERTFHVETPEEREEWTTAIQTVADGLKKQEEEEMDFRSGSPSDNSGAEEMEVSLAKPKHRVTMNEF

Assay [4] concerns the target T4, Tumor Suppressor (TSG101) 50-391 (human, UniProt Q99816 50-390).
T4 construct: range 50-391; bait (Gal4 DBD fusion)
T4 sequence (looked up): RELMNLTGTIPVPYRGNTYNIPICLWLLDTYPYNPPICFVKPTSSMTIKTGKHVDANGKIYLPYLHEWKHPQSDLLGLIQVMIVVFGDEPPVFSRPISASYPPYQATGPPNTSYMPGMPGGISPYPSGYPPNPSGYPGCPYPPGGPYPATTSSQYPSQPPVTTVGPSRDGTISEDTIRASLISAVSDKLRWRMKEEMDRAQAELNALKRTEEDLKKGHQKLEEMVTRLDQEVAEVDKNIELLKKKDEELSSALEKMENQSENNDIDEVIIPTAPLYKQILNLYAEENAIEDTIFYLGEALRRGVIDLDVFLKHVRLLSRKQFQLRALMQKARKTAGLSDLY

Assay [5] deals with B12.
The target in assay [6] is B11.
The target in assay [7] is T5, Cytoplasmic dynein light chain 1 (HDLC1) 1-90 (human, UniProt P63167 1-89).
T5 construct: range 1-90; prey (Gal4 AD-HA fusion)
T5 sequence (P63167 whole entry, the tested form may be a part): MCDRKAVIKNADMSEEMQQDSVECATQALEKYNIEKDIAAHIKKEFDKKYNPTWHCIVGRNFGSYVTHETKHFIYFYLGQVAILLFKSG

Assay [8] has as its target T6, Golgi autoantigen (Golgin-84) 198-501 (human, UniProt Q8TBA6 198-501).
T6 construct: prey (Gal4 AD-HA fusion)
T6 sequence (looked up): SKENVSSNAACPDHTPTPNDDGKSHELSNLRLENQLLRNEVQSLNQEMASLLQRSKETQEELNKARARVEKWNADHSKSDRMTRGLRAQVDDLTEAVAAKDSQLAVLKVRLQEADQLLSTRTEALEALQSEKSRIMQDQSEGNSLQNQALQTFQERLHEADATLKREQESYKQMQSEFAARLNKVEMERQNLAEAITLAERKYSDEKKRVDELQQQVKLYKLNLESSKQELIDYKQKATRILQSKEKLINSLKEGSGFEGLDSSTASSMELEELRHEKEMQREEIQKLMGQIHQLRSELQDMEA

The target of assay [9] is T7, Hypothetical protein FLJ10540 1-140 (human, UniProt Q53EZ4 1-140).
T7 construct: range 1-140; prey (Gal4 AD-HA fusion)
T7 sequence (looked up): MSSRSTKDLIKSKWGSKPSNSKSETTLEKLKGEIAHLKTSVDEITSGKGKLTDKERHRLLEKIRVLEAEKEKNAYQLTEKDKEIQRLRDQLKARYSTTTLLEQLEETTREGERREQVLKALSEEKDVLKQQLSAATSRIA

For assay [10], the target named is T8, Hypothetical protein FLJ10540 2-132 (human, UniProt Q53EZ4 2-132).
T8 construct: prey (Gal4 AD-HA fusion)
T8 sequence (looked up): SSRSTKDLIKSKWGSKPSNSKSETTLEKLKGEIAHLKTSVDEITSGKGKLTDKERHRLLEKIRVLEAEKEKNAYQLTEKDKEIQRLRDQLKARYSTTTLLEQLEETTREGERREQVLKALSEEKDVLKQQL

Assay [11] deals with T9, Tumor Suppressor (TSG101) 1-274 (human, UniProt Q99816 1-274).
T9 construct: range 1-274; bait (Gal4 DBD fusion)
T9 sequence (looked up): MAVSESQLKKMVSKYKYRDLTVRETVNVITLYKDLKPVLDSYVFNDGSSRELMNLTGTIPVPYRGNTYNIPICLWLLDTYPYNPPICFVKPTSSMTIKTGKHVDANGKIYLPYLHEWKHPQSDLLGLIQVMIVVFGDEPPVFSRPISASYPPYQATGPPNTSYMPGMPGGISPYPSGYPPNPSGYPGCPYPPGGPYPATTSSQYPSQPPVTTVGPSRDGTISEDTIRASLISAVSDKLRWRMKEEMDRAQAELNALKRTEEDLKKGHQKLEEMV

B1: Survivin (BIRC5) 3-99 (other, human, UniProt O15392 3-99, looked up)
chain: APTLPPAWQPFLKDHRISTFKNWPFLEGCACTPERMAEAGFIHCPTENEPDLAQCFFCFKELEGWEPDDDPIEEHKKHSSGCAFLSVKKQFEELTLG
notes: range 3-99; bait (Gal4 DBD fusion); also called API4
On to B1, for which the binding result in [1] was “binds”.

B2: tetratricopeptide repeat domain 3 (TPRD) 1058-1189 (other, human, UniProt P53804 1058-1189, looked up)
chain: NRNSDSAGPFAVPDHLRQDVEEFEALYDQHSNEYVVRNKKLWDMNPKQKCSTLYDYFSQFLEEHGPLDMSNKMFSAEYEFFPEETRQILEKAGGLKPFLLGCPRFVVIDNCIALKKVASRLKKKRKKKNIKT
notes: prey (Gal4 AD-HA fusion)
As to B2, the binding result in assay [2] and in assay [3] was “binds” throughout.

B3: farnesyltransferase, CAAX box, alpha (FNTA) 189-328 (enzyme)
chain: not shown
notes: prey (Gal4 AD-HA fusion)
With B3, the binding result in assay [3] is recorded as “binds”.

B4: Hypothetical protein FLJ10540 1-231 (other, human, UniProt Q53EZ4 1-231, looked up)
chain: MSSRSTKDLIKSKWGSKPSNSKSETTLEKLKGEIAHLKTSVDEITSGKGKLTDKERHRLLEKIRVLEAEKEKNAYQLTEKDKEIQRLRDQLKARYSTTTLLEQLEETTREGERREQVLKALSEEKDVLKQQLSAATSRIAELESKTNTLRLSQTVAPNCFNSSINNIHEMEIQLKDALEKNQQWLVYDQQREVYVKGLLAKIFELEKKTETAAHSLPQQTKKPESEGYLQE
notes: prey (Gal4 AD-HA fusion)
Consider B4, for which the binding result in assay [4] is “binds”.

B5: Hypothetical protein FLJ10540 1-110 (other, human, UniProt Q53EZ4 1-110, looked up)
chain: MSSRSTKDLIKSKWGSKPSNSKSETTLEKLKGEIAHLKTSVDEITSGKGKLTDKERHRLLEKIRVLEAEKEKNAYQLTEKDKEIQRLRDQLKARYSTTTLLEQLEETTRE
notes: range 1-110; prey (Gal4 AD-HA fusion)
As for B5, the binding result in assay [4] is “binds”.

B6: Hypothetical protein FLJ10540 1-120 (other, human, UniProt Q53EZ4 1-120, looked up)
chain: MSSRSTKDLIKSKWGSKPSNSKSETTLEKLKGEIAHLKTSVDEITSGKGKLTDKERHRLLEKIRVLEAEKEKNAYQLTEKDKEIQRLRDQLKARYSTTTLLEQLEETTREGERREQVLKA
notes: range 1-120; prey (Gal4 AD-HA fusion)
Turning to B6, the binding result in assay [5] is on record as “binds”.

B7: VPS28 protein 10-221 (other, human, UniProt Q9UK41 10-221, looked up)
chain: GIGAPGNKPELYEEVKLYKNAREREKYDNMAELFAVVKTMQALEKAYIKDCVSPSEYTAACSRLLVQYKAAFRQVQGSEISSIDEFCRKFRLDCPLAMERIKEDRPITIKDDKGNLNRCIADVVSLFITVMDKLRLEIRAMDEIQPDLRELMETMHRMSHLPPDFEGRQTVSQWLQTLSGMSASDELDDSQVRQMLFDLESAYNAFNRFLHA
notes: prey (Gal4 AD-HA fusion); also called vacuolar protein sorting 28
For the molecule B7, the binding result in assay [6] is reported as “binds”.

B8: Hypothetical protein FLJ10540 1-115 (other, human, UniProt Q53EZ4 1-115, looked up)
chain: MSSRSTKDLIKSKWGSKPSNSKSETTLEKLKGEIAHLKTSVDEITSGKGKLTDKERHRLLEKIRVLEAEKEKNAYQLTEKDKEIQRLRDQLKARYSTTTLLEQLEETTREGERRE
notes: prey (Gal4 AD-HA fusion)
Turning to B8, the binding result in assay [5] is “binds”.

B9: Survivin (BIRC5) 89-143 (other, human, UniProt O15392 89-142, looked up)
chain: VKKQFEELTLGEFLKLDRERAKNKIAKETNNKKKEFEETAKKVRRAIEQLAAMD
notes: range 89-143; bait (Gal4 DBD fusion); also called API4
For B9, the binding result in assay [7] is “binds”.

B10: VPS28 protein 27-221 (other, human, UniProt Q9UK41 27-221, looked up)
chain: YKNAREREKYDNMAELFAVVKTMQALEKAYIKDCVSPSEYTAACSRLLVQYKAAFRQVQGSEISSIDEFCRKFRLDCPLAMERIKEDRPITIKDDKGNLNRCIADVVSLFITVMDKLRLEIRAMDEIQPDLRELMETMHRMSHLPPDFEGRQTVSQWLQTLSGMSASDELDDSQVRQMLFDLESAYNAFNRFLHA
notes: as for B7
With B10, the binding result in assay [6] is reported as “binds”. B11: the binding result in assay [8] was “binds”.

B12: the binding result in assay [9] and in assay [10] was “binds” throughout.

B13: Hypothetical protein FLJ10540 1-117 (other, human, UniProt Q53EZ4 1-117, looked up)
chain: MSSRSTKDLIKSKWGSKPSNSKSETTLEKLKGEIAHLKTSVDEITSGKGKLTDKERHRLLEKIRVLEAEKEKNAYQLTEKDKEIQRLRDQLKARYSTTTLLEQLEETTREGERREQV
notes: prey (Gal4 AD-HA fusion)
As for B13, the binding result in assay [4] was “binds”.

B14: Hypothetical protein FLJ10540 115-231 (other, human, UniProt Q53EZ4 115-231, looked up)
chain: EQVLKALSEEKDVLKQQLSAATSRIAELESKTNTLRLSQTVAPNCFNSSINNIHEMEIQLKDALEKNQQWLVYDQQREVYVKGLLAKIFELEKKTETAAHSLPQQTKKPESEGYLQE
notes: prey (Gal4 AD-HA fusion)
As for B14, in [4], the binding result was “binds”.

B15: Actinin (ACTN1) 719-892 (other, human, UniProt P12814 719-892, looked up)
chain: QLLTTIARTINEVENQILTRDAKGISQEQMNEFRASFNHFDRDHSGTLGPEEFKACLISLGYDIGNDPQGEAEFARIMSIVDPNRLGVVTFQAFIDFMSRETADTDTADQVMASFKILAGDKNYITMDELRRELPPDQAEYCIARMAPYTGPDSVPGALDYMSFSTALYGESDL
notes: prey (Gal4 AD-HA fusion)
With B15, the binding result in assay [11] is “binds”.

B16: Hypothetical protein FLJ10540 1-74 (other, human, UniProt Q53EZ4 1-74, looked up)
chain: MSSRSTKDLIKSKWGSKPSNSKSETTLEKLKGEIAHLKTSVDEITSGKGKLTDKERHRLLEKIRVLEAEKEKNA
notes: range 1-74; prey (Gal4 AD-HA fusion)
As to B16, the binding result in assay [5] is “binds”.
